Test results: the supplement of paper PMC10724198
± gives the standard deviation of the averaged measurements.

Legend:
Saccharomyces cerevisiae [1] = assay: protein stability index of tFT-peptide fusion (C-terminal peptide) (PSI (0-1 scale)); higher = more stable (slower turnover)
Procedure: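 MPS profiling in S. cerevisiae of the tFT-X12 degron library: putative degron peptides plus stable controls, 12 aa, fused to the C-terminus of a sfGFP-mCherry timer. Cells are FACS-sorted into 8 mCherry/sfGFP bins and deep-sequenced. PSI runs from 0 (unstable) to 1 (stable). Backgrounds are wild type, das1Δ and doa10Δ at 30 °C, and wild type, das1Δ, cdc34-1 and cdc53-1 at 37 °C; 2-3 technical replicates each.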

Saccharomyces cerevisiae [2] = assay: as above; conditions: genetic background: wild type; temperature: 30 C
[3] = genetic background: cdc34-1, temperature: 37 C
[4] = genetic background: cdc53-1, temperature: 37 C
[5] = genetic background: das1 deletion, temperature: 30 C
[6] = genetic background: das1 deletion, temperature: 37 C
[7] = genetic background: doa10 deletion, temperature: 30 C
[8] = genetic background: wild type, temperature: 30 C
[9] = genetic background: wild type, temperature: 37 C
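Further: PSI is a weighted mean of sequencing reads over stability bins, variants kept only with over 10 reads, mCherry proximal and sfGFP distal, peptide attached via GGGS linker.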

| Sequence | protein stability index (Saccharomyces cerevisiae [1]; [3]) | protein stability index (Saccharomyces cerevisiae [1]; [4]) | protein stability index (Saccharomyces cerevisiae [1]; [5]) | protein stability index (Saccharomyces cerevisiae [1]; [6]) | protein stability index (Saccharomyces cerevisiae [1]; [7]) | protein stability index (Saccharomyces cerevisiae [1]; [8]) | protein stability index (Saccharomyces cerevisiae [1]; [9]) | protein stability index (Saccharomyces cerevisiae [2]) |
| --- | --- | --- | --- | --- | --- | --- | --- | --- |
| PFRSAYYLLFLL | 0.496 ± 0.048 | 0.6347 ± 0.0016 | 0.54 ± 0.013 | 0.6738 ± 0.00079 | 0.122 ± 0.015 | 0.118 ± 0.0092 | 0.161 ± 0.026 | 0.205 ± 0.035 |
| PFVATRVSCFLT | 0.542 ± 0.013 | 0.704 ± 0.024 | 0.626 ± 0.087 | 0.685 ± 0.0089 | 0.339 ± 0.004 | 0.39 ± 0.05 | 0.4393 ± 0.00057 | 0.414 ± 0.015 |
| PHFDLLLCLSLN | 0.625 ± 0.026 | 0.753 ± 0.057 | 0.676 ± 0.049 | 0.718 ± 0.018 | 0.248 ± 0.032 | 0.257 ± 0.033 | 0.521 ± 0.016 | 0.366 ± 0.0045 |
| PHLDLYRLSALI | 0.705 ± 0.01 | 0.751 ± 0.016 | 0.668 ± 0.032 | 0.79 ± 0.012 | 0.329 ± 0.031 | 0.366 ± 0.021 | 0.57 ± 0.021 | 0.47 ± 0.0056 |
| PHPPRPPCPPIL | 0.673 ± 0.041 | 0.736 ± 0.015 | 0.674 ± 0.0068 | 0.721 ± 0.0074 | 0.699 ± 0.037 | 0.678 ± 0.015 | 0.699 ± 0.0093 | 0.74 ± 0.019 |
| PHVSALSRDPES | 0.698 ± 0.038 | 0.728 ± 0.0092 | 0.649 ± 0.021 | 0.7247 ± 0.0027 | 0.65 ± 0.025 | 0.662 ± 0.017 | 0.701 ± 0.016 | 0.716 ± 0.018 |
| PISNMSIILLFL | 0.495 ± 0.072 | 0.595 ± 0.043 | 0.439 ± 0.028 | 0.593 ± 0.016 | 0.378 ± 0.018 | 0.391 ± 0.015 | 0.556 ± 0.027 | 0.48 ± 0.04 |
| PLFFGVQAFGGV | 0.727 ± 0.026 | 0.79052 ± 0.0004 | 0.664 ± 0.029 | 0.7644 ± 0.0042 | 0.669 ± 0.033 | 0.679 ± 0.014 | 0.7622 ± 0.0021 | 0.7335 ± 0.0045 |
| PLPCFVLRLPVF | 0.39 ± 0.037 | 0.429 ± 0.033 | 0.298 ± 0.031 | 0.465 ± 0.0064 | 0.267 ± 0.011 | 0.304 ± 0.024 | 0.4379 ± 0.0024 | 0.402 ± 0.02 |
| PLPSEKAPTLLL | 0.686 ± 0.019 | 0.735 ± 0.01 | 0.637 ± 0.0092 | 0.736 ± 0.036 | 0.636 ± 0.027 | 0.6384 ± 0.0045 | 0.718 ± 0.0072 | 0.583 ± 0.15 |
| PLPSFLYFILLR | 0.22 ± 0.062 | 0.196 ± 0.024 | 0.333 ± 0.03 | 0.396 ± 0.024 | 0.524 ± 0.035 | 0.357 ± 0.012 | 0.359 ± 0.044 | 0.44 ± 0.079 |
| PLRKYLRHLLSL | 0.59822 ± 0.00032 | 0.7453 ± 0.0022 | 0.647 ± 0.022 | 0.735 ± 0.036 | 0.1635 ± 0.0013 | 0.159 ± 0.012 | 0.285 ± 0.0041 | 0.218 ± 0.055 |
| PLRRPPPRPPWP | 0.65 ± 0.025 | 0.7054 ± 0.0032 | 0.674 ± 0.024 | 0.7032 ± 0.003 | 0.69 ± 0.03 | 0.644 ± 0.025 | 0.687 ± 0.011 | 0.494 ± 0.036 |
| PLSPTNLSRLLS | 0.658 ± 0.034 | 0.7642 ± 0.0043 | 0.651 ± 0.012 | 0.744 ± 0.0077 | 0.1987 ± 0.0011 | 0.234 ± 0.037 | 0.526 ± 0.033 | 0.339 ± 0.015 |
| PPGSPPGSLRPT | 0.67 ± 0.038 | 0.715 ± 0.027 | 0.664 ± 0.026 | 0.713 ± 0.013 | 0.662 ± 0.029 | 0.665 ± 0.036 | 0.703 ± 0.013 | 0.78 ± 0.025 |
| PPHRTLLQLRTN | 0.599 ± 0.072 | 0.728 ± 0.035 | 0.661 ± 0.022 | 0.727 ± 0.0085 | 0.169 ± 0.021 | 0.164 ± 0.02 | 0.313 ± 0.015 | 0.343 ± 0.18 |
| PPPAPPLSMPAP | 0.647 ± 0.064 | 0.73 ± 0.027 | 0.665 ± 0.014 | 0.718 ± 0.026 | 0.671 ± 0.021 | 0.681 ± 0.022 | 0.6928 ± 0.0055 | 0.0173 ± 0.0038 |
| PPPLCSTCIRCC | 0.197 ± 0.035 | 0.206 ± 0.038 | 0.224 ± 0.027 | 0.354 ± 0.0097 | 0.175 ± 0.0021 | 0.205 ± 0.019 | 0.274 ± 0.013 | 0.293 ± 0.0083 |
| PPQDQAPVGVND | 0.672 ± 0.041 | 0.7509 ± 0.0024 | 0.619 ± 0.019 | 0.74 ± 0.0071 | 0.623 ± 0.03 | 0.644 ± 0.038 | 0.7007 ± 0.0022 | 0.474 ± 0.064 |
| PPRCLLPPPSRS | 0.652 ± 0.034 | 0.699 ± 0.014 | 0.694 ± 0.015 | 0.693 ± 0.0092 | 0.72 ± 0.05 | 0.692 ± 0.012 | 0.678 ± 0.009 | 0.79 ± 0.015 |

| Sequence | protein stability index (Saccharomyces cerevisiae [1]; [3]) | protein stability index (Saccharomyces cerevisiae [1]; [4]) | protein stability index (Saccharomyces cerevisiae [1]; [5]) | protein stability index (Saccharomyces cerevisiae [1]; [6]) | protein stability index (Saccharomyces cerevisiae [1]; [7]) | protein stability index (Saccharomyces cerevisiae [1]; [8]) | protein stability index (Saccharomyces cerevisiae [1]; [9]) | protein stability index (Saccharomyces cerevisiae [2]) |
| --- | --- | --- | --- | --- | --- | --- | --- | --- |
| PPRDPGGLFTPF | 0.732 ± 0.017 | 0.7854 ± 0.0062 | 0.679 ± 0.0077 | 0.7763 ± 0.003 | 0.703 ± 0.022 | 0.674 ± 0.028 | 0.767 ± 0.039 | 0.71756 ± 0.00059 |
| PPSPAPLPDSLP | 0.662 ± 0.036 | 0.6995 ± 0.0011 | 0.684 ± 0.038 | 0.715 ± 0.017 | 0.693 ± 0.015 | 0.691 ± 0.021 | 0.696 ± 0.0075 | 0.7006 ± 0.0066 |
| PPSPPLLFHFPP | 0.669 ± 0.049 | 0.756 ± 0.013 | 0.661 ± 0.0077 | 0.7367 ± 0.005 | 0.661 ± 0.022 | 0.658 ± 0.018 | 0.7058 ± 0.007 | 0.586 ± 0.15 |
| PPTLLPPLHPAP | 0.681 ± 0.056 | 0.725 ± 0.0045 | 0.663 ± 0.011 | 0.7217 ± 0.005 | 0.666 ± 0.028 | 0.688 ± 0.038 | 0.731 ± 0.023 | 0.64 ± 0.23 |
| PTLPASLHSIYP | 0.654 ± 0.03 | 0.72 ± 0.031 | 0.684 ± 0.028 | 0.698 ± 0.021 | 0.687 ± 0.03 | 0.6731 ± 0.0056 | 0.6917 ± 0.0027 | 0.768 ± 0.024 |
| PTYSCSIKIQAH | 0.539 ± 0.037 | 0.537 ± 0.037 | 0.407 ± 0.03 | 0.5503 ± 0.0049 | 0.339 ± 0.01 | 0.366 ± 0.022 | 0.517 ± 0.02 | 0.427 ± 0.031 |
| PWGSHLYYVVCI | 0.168 ± 0.026 | 0.228 ± 0.011 | 0.238 ± 0.03 | 0.3371 ± 0.0028 | 0.183 ± 0.013 | 0.221 ± 0.035 | 0.315 ± 0.016 | 0.339 ± 0.023 |
| PWWDALLRARVC | 0.429 ± 0.033 | 0.6 ± 0.054 | 0.435 ± 0.021 | 0.625 ± 0.019 | 0.103 ± 0.013 | 0.115 ± 0.022 | 0.159 ± 0.0039 | 0.163 ± 0.025 |
| PYVHPFRCYWVL | 0.589 ± 0.032 | 0.717 ± 0.027 | 0.621 ± 0.02 | 0.7396 ± 0.0015 | 0.128 ± 0.01 | 0.138 ± 0.0077 | 0.181 ± 0.016 | 0.193 ± 0.029 |
| QCSPGLPHAQGL | 0.692 ± 0.025 | 0.71 ± 0.015 | 0.634 ± 0.024 | 0.733 ± 0.014 | 0.657 ± 0.028 | 0.666 ± 0.039 | 0.708 ± 0.013 | 0.565 ± 0.15 |
| QGPHISQYRTHR | 0.67 ± 0.022 | 0.7226 ± 0.0053 | 0.6413 ± 0.0052 | 0.745 ± 0.025 | 0.676 ± 0.0068 | 0.673 ± 0.014 | 0.728 ± 0.0094 | 0.706 ± 0.0037 |
| QHRAIKIEIKIN | 0.439 ± 0.024 | 0.666 ± 0.018 | 0.571 ± 0.048 | 0.672 ± 0.02 | 0.0613 ± 0.035 | 0.0582 ± 0.013 | 0.0578 ± 0.011 | 0.091 ± 0.0089 |
| QVLISLYVHGYF | 0.551 ± 0.053 | 0.5374 ± 0.0037 | 0.453 ± 0.047 | 0.51 ± 0.017 | 0.388 ± 0.011 | 0.426 ± 0.02 | 0.519 ± 0.019 | 0.501 ± 0.008 |
| RCCWWNAQAVWR | 0.725 ± 0.043 | 0.7494 ± 0.0045 | 0.638 ± 0.029 | 0.752 ± 0.0039 | 0.655 ± 0.016 | 0.631 ± 0.032 | 0.73 ± 0.023 | 0.578 ± 0.15 |
| RCLHTSVFLIFP | 0.484 ± 0.012 | 0.488 ± 0.038 | 0.476 ± 0.038 | 0.604 ± 0.021 | 0.652 ± 0.026 | 0.488 ± 0.03 | 0.54 ± 0.008 | 0.459 ± 0.03 |
| RDASLLFHFFVC | 0.507 ± 0.059 | 0.727 ± 0.014 | 0.614 ± 0.012 | 0.726 ± 0.011 | 0.0833 ± 0.018 | 0.0965 ± 0.0056 | 0.143 ± 0.015 | 0.199 ± 0.0058 |
| REGDLLKFKMRP | 0.6854 ± 0.0054 | 0.727 ± 0.008 | 0.637 ± 0.024 | 0.716 ± 0.018 | 0.637 ± 0.037 | 0.639 ± 0.015 | 0.703 ± 0.027 | 0.725 ± 0.067 |
| RFFVRRVRVAVL | 0.786 ± 0.036 | 0.817 ± 0.019 | 0.553 ± 0.055 | 0.687 ± 0.0081 | 0.386 ± 0.025 | 0.382 ± 0.031 | 0.578 ± 0.048 | 0.406 ± 0.0052 |
| RFICMMYLVYLC | 0.142 ± 0.022 | 0.188 ± 0.023 | 0.192 ± 0.03 | 0.3 ± 0.016 | 0.0601 ± 0.035 | 0.0619 ± 0.018 | 0.073 ± 0.019 | 0.1405 ± 0.0006 |
